This series deals with the molecule itself. Kind of series: SEC. A general note: Size exclusion chromatography separates by hydrodynamic size, large species first.

This is an account of results in doi:10.1101/495473 (bioRxiv, 2018).

B1: Plasmodium berghei phosphoglycolate phosphatase (PbPGP) (enzyme, P. berghei, UniProt A0A509AU59 1-322, looked up)
chain: MSLIVSEASQNNYFKDSENSYNSFMKEWKIEKRVNVKDLYQNFEVFFFDCDGVLWRGDTVINGAIEVINKLISDNKKVYFITNNSTKSRDTLLGKFHKLGFTCVKKEHIICTSYAIAKYFHSKEEYKSRKKKIYVIGEKGICDELDALNLVWLGSYKDNDKKVIIQDEGEIQIDNNIGAVVVAIDFNINYYKIQYAQLCINGLDAEFIVSNKDPLANFTSNQQWAGTGSIVASIEQVSFKKPKVLGKPNLFMIESVLKSLNIDLSKVVMIGDRLDTDIFFAQNCKIKSILVSTGVTDANVFLNHNNLNIKPDYFMKSILEFL
What is called stoichiometry N is a count of units in the complex or per binding partner. In the case of B1, the “stoichiometry N” value is 2.
